Measured values published in PMC4582117, “VEGF-A/NRP1 stimulates GIPC1 and Syx complex formation to promote RhoA activation and proliferation in skin cancer cells” (Biology Open, 2015).

Target: T1, HA-tagged GIPC1 (GAIP interacting protein C terminus) (UniProt O14908 1-333)
T1 construct: GIPC1, scaffold protein with a PDZ domain; The plasmid list begins with 'Human NRP1WT, HA-tagged GIPC1, ...'; it is not clear whether 'Human' also covers GIPC1; also called GIPC1 (HA); source: HEK293T, transfected (pcDNA 3.1 TOPO, FuGENE6), in lysate
T1 sequence (looked up): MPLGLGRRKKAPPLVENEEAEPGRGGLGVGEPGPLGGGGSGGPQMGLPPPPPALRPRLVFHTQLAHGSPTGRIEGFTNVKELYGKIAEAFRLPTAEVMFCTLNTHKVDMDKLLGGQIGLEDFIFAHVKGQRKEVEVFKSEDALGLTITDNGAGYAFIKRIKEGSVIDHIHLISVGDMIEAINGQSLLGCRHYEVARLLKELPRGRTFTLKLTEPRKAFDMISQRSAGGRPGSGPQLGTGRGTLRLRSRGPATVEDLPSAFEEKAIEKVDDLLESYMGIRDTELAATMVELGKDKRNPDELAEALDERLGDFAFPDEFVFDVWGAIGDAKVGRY
Experiment: co-IP; Scrambled or Targeted peptide mixed with lysate of HEK293T overexpressing HA-GIPC1, 1 h rotation at 4°C; co-immunoprecipitated with GIPC1; blot with anti-GFP
Conditions: one partner purified

B1: TAT-EGFP-peptide 1 (STLTASEV), the Targeted peptide (peptide)
chain: GSTLTASEV
notes: Detected with anti-GFP; also called Target peptide; not shown: EGFP, N-terminal, kept
fold binding over the Scrambled peptide: 3 fold
